# In PMC12199146:
# Target: T1, Endonuclease V (EcEndoV), wild-type (Escherichia coli) (UniProt P68739)
# T1 sequence: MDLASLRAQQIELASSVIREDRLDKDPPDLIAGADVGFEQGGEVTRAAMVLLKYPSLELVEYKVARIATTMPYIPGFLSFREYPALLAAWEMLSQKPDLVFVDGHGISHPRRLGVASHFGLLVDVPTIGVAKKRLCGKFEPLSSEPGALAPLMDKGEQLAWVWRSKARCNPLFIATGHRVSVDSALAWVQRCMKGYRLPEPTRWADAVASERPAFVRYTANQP
# Experiment: EMSA
# Conditions: 5 mM Mg2+; pattern similar to A-RNA; one inosine; EMSA: 25 mM sodium phosphate pH 6.5, 50-300 mM NaCl (500 mM in Fig. S17E), 1 mM DTT, 5 mM MgCl2, 30 min on ice, 2 pmol RNA in 10 ul, 12% native gel in TBE at …
substance,measurement,value
"1I-RNA (single-edited 20-mer dsRNA, one I:U pair)",binding signal (fold KD vs I-RNA),2
